Positions count from the first letter of the chain named. Each block holds one binder with its values, some of them ahead of it.
Experiments:
[1] = target: T1, pepN48, first 48 residues of the extracellular N-terminus of hCXCR2 (Homo sapiens, biotin on the N-terminus); assay: SPR; biotinylated pepN48 loaded on streptavidin chip (Series S Sensor Chip SA), antibody flowed over, Biacore T200, HBS-EP+ buffer pH 7.4; conditions: both partners purified
T1 construct: human CXC chemokine receptor 2 (CXCR2), first 48 residues; also called CXCR2 N-terminal peptide; source: synthetic peptide (Chinese Peptide)
T1 chain: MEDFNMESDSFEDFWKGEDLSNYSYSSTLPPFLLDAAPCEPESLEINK

[2] = target: T2, pepN48, peptide of the first 48 residues of the extracellular N-terminus of hCXCR2 (Homo sapiens, biotin labeled on its N-terminus); assay: SPR; biotinylated pepN48 loaded on a streptavidin Series S Sensor Chip SA; antibody flowed; Biacore T200; HBS-EP+ buffer pH 7.4; conditions: both partners purified
T2 construct: human CXC chemokine receptor 2 (CXCR2), first 48 residues; a blank before the last K in the print was removed; also called CXCR2 N-terminal peptide; source: synthetic peptide (Chinese Peptide, Hangzhou)
T2 chain: T1 chain

[3] = target: T3, human CXCR2 (hCXCR2)-mCherry fusion protein on U2OS cells (human, UniProt P25025); assay: flow cytometry on cells; cellular supernatants with scFv-Fc on U2OS cells with membrane-bound hCXCR2-mCherry; conditions: partners not purified
T3 construct: human CXC chemokine receptor 2 (CXCR2); Also used here as the target of the functional rows, whose cells (Tango CXCR2-bla U2OS; CHO with hCXCR2 and Gα16; U2OS overexpressing hCXCR2) carry other hCXCR2 constructs; also called CXC chemokine receptor 2; source: U2OS, transiently overexpressed, on cells

[4] = target: T4, pepN9-19, 9-19 amino acid peptide of hCXCR2 (human); assay: crystal structure; Fab mixed with pepN9-19 at a molar ratio of 1:3; hanging drop vapor diffusion, 18 °C; conditions: both partners purified
T4 construct: human CXCR2 residues 9-19; source: synthetic peptide (Sangon Biotech) for crystallography
T4 chain: DSFEDFWKGED

[5] = target: T3, human CXCR2 (hCXCR2)-mCherry fusion …; assay: cell-based or functional assay
[6] = target: T5, macaque CXCR2 (mcCXCR2-mCherry) on U2OS cells (Macaca mulatta (macaque species not …, UniProt A0A5F7ZQV3)); assay: flow cytometry on cells; U2OS cells transiently overexpressing receptor-mCherry; 2 μg mL^−1 antibody in FACS buffer (0.5% BSA in PBS pH 7.4, 2 mM EDTA), 4 °C, 15 min; Alexa Fluor 488 anti-human IgG; conditions: one partner purified
T5 construct: macaque CXCR2; also called macaque monkey CXCR2; source: U2OS, transiently overexpressed, on cells
T5 sequence (Q28519 whole entry): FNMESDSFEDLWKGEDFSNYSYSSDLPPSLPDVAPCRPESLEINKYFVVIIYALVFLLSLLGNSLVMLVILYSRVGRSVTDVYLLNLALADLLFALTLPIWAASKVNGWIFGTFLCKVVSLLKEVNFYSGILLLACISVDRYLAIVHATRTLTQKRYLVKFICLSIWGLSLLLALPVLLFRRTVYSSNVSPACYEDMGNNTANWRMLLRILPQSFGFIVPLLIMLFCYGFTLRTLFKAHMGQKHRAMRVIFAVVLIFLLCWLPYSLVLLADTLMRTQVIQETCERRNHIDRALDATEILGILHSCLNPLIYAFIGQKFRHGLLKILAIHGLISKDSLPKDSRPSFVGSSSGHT

[7] = target: T3, human CXCR2 (hCXCR2)-mCherry fusion …; assay: immunostaining of cells or tissue; U2OS cells overexpressing receptor-mCherry, fixed with 4% paraformaldehyde; 2 μg mL^−1 antibody at 4 °C overnight; Alexa Fluor 488 anti-human IgG; confocal microscopy; conditions: one partner purified

B2: abN48-2-IgG1 (antibody, V domains shown)
VH: QVQLVQSGAEVKKPGSSVKVSCKASGGTLSSYAISWVRQAPGQGPEWMGWINPNSGGTNYAQKFQGRVTMTRDTSISTAYMELSRLRPDDTAVYYCASGYCSRTRCYDYWGQGTLVTVSS
VL: QAVLTQPSSLSASPGASVSLTCTLRSGINVGAYRIYWYQQKPGSPPQFLLRYKSDSDKQQGSGVPSRFSGSRDASANAGILLISGLRSEDEADYYCAIWHSSAWVFGGGTQLTVL
notes: VH as the heavy chain of Dm1 with two changes in H-CDR3 (Kabat numbering); complete constant domains of the IgG1 heavy chain; as the light chain of Dm1 (lambda type); IgG1, lambda; also called H8-2
- koff [1]: 1.7e-05 s⁻¹
- kon [1]: 940000 M⁻¹ s⁻¹

B3: H8 (abN48) scFv antibody (scFv, V domains shown)
VH: B2 VH with R103S, R105S
VL: B2 VL
notes: VH and VL as in the abN48 Fab of PDB 6KVF; Expressed as scFv-Fc with the entire Fc domain of human IgG1 (pFuse, InvivoGen pfuse-hg1fc2); also called scFv-Fc; source: HEK293F, transfected (pFuse vector); in cellular supernatant, and purified (HiTrap Protein A)
- Kd [2]: 2.6 nM
- binding result [3]: binds

B5: abN48-2-IgG1 (antibody, V domains shown)
VH: B2 VH
VL: B2 VL
notes: VH of abN48-2; equals the VH of m2 (PDB 6KVF) with Ser99 to Arg99 and Ser100A to Arg100A in H-CDR3 (Kabat numbering); complete constant domains of human IgG1 heavy chain; whole lambda light chain; as the light chain of m2; Full-length IgG1, lambda type; also called ab48-2-IgG1; AbN4-2-IgG1; source: HEK293T (results) or HEK293F (methods), transfected, purified (HiTrap Protein A)
- Kd [2]: 0.0072 nM
- partial agonist effect on Ca^2+ influx at high concentration (10–1000 nM), FLIPR, apparent EC50 [5]: 310 nM
- binding result [6]: binds

Now from value to binder:

- koff [1]: 0.00035 s⁻¹
- kon [1]: 350000 M⁻¹ s⁻¹
B1: abN48-IgG1 (antibody, V domains shown)
VH: B2 VH with R103S, R105S
VL: B2 VL
notes: VH of abN48 (from the scFv H8); complete constant domains of the IgG1 heavy chain; VL of abN48 on a complete light chain constant domain (lambda type is said of abN48-2-IgG1); IgG1; made from the scFv abN48 (H8); source: HEK293F, co-transfected heavy and light chain plasmids, purified (Protein A)

- binding result [4]: binds
B4: abN48 Fab (Fab, V domains shown)
VH: B2 VH with R103S, R105S
VL: B2 VL
notes: Fab heavy chain of abN48; light chain of abN48; as the light chain of m2; source: Fab made following a similar protocol as for abN48-2 Fab (papain cleavage of the IgG1, purified)

- binding result [4]: binds
B6: abN48-2 Fab (Fab, V domains shown)
VH: B2 VH
VL: B2 VL
notes: Fab heavy chain of abN48-2; VH equals that of m2 (PDB 6KVF) with Ser99 to Arg99 and Ser100A to Arg100A (Kabat numbering); lambda light chain; as the light chain of m3; source: papain cleavage of abN48-2-IgG1, purified (HiTrap lambda HP, Superdex200 increase)

- Kd [2]: 0.78 nM
- binding result [7]: binds
- binding result [6]: binds
B7: abN48-IgG1 (antibody, V domains shown)
VH: B2 VH with R103S, R105S
VL: B2 VL
notes: VH of abN48; complete constant domains of human IgG1 heavy chain; whole light chain of abN48 (VL and CL); Full-length IgG1; source: HEK293F, co-transfected heavy and light chain plasmids, purified (HiTrap Protein A)

— PMC8100106, “Selection of a picomolar antibody that targets CXCR2-mediated neutrophil activation and alleviates EAE symptoms” (Nature Communications, 2021)
